Columns and labels:
[1] = molecular target: OHP1 (Zea mays, UniProt Q03462 1-405); assay: EMSA
[2] = molecular target: T1, PBF (prolamin-box binding factor) (Zea mays, UniProt O24463 1-328); assay: EMSA
T1 sequence: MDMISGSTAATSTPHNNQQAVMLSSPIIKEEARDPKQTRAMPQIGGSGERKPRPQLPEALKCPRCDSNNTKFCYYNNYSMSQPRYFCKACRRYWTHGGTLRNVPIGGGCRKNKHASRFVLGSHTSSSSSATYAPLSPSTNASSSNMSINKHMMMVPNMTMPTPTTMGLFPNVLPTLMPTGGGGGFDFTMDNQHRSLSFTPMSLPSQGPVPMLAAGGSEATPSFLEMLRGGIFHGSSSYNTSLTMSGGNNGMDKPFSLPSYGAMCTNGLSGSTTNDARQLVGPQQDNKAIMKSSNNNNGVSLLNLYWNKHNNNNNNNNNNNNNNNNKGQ

Row | Binder | binding result [1] | binding result [2]
1 | z1C O2-box (dsDNA) DNA 1: GAGATCTTGCATGTCATTCCACGTAGATAAAAAGAATGCATATATA DNA 2: TATATATGCATTCTTTTTATCTACGTGGAATGACATGCAAGATCTC | binds | 
2 | z1A O2-like box (dsDNA) DNA 1: ATCAAGTTTGTCTTGCTTACGTATAAATTATAACCCAACA DNA 2: TGTTGGGTTATAATTTATACGTAAGCAAGACAAACTTGAT | binds | 
3 | z1B-P2 (dsDNA) DNA 1: CAAAGCCAACTAGATACCACATCATCTCTAGCTTATCTTA DNA 2: TAAGATAAGCTAGAGATGATGTGGTATCTAGTTGGCTTTG | binds | 
4 | z1B-P3 (dsDNA) DNA 1: AACTCAATCTACATAAGCACAAGGTCTAACATGTGTATAA DNA 2: TTATACACATGTTAGACCTTGTGCTTATGTAGATTGAGTT | binds | 
5 | z1D-P1 (dsDNA) DNA 1: TTTTGTGCAAATTGTTTTGTCGACATATAAAGTGTAAGATAAGAAA DNA 2: TTTCTTATCTTACACTTTATATGTCGACAAAACAATTTGCACAAAA | binds | 
6 | z1C P-box (dsDNA) DNA 1: TCATGTTAATGTTGTCACATGTGTAAAGGTGAAGAGATCTTGCATGT DNA 2: ACATGCAAGATCTCTTCACCTTTACACATGTGACAACATTAACATGA |  | binds
7 | z1A P box (dsDNA) DNA 1: GGCTATCGTTACACATGTGTAAAGGTATTGCATCACACCATT DNA 2: AATGGTGTGATGCAATACCTTTACACATGTGTAACGATAGCC |  | binds

— paper PMC5068848
